# In the RNAGym collection of RNA variant scans (doi:10.1073/pnas.2313332121):
# B1: TPR t1 (parent)
# chain: GACCAAUCUGCCCUCAGAGCUCGAGAACAUCUUCGGAUGCAGAGGAGGCAGGCUUCGGUGGCGCGAUAGCGCCAACGUCCUCAACCUCCAAUGCAUCCCACCACAUGAUGAUGCCUGAAGAGCCUUGGUUUUUUG
# Variants of: B1
# Assay: polymerase ribozyme fitness, log enrichment relative to wild type (log ratio); higher = more active; in vitro selection for triplet polymerase activity
# Method in brief: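 One round of in vitro selection, in triplicate, was applied to PCR-built, transcribed mutant libraries of each subunit of a heterodimeric triplet polymerase ribozyme. The steps were annealing with a biotinylated primer, partner subunit and triplets, incubation frozen at −7 °C, gel excision of extended constructs, streptavidin-bead capture and RT-PCR. Fitness is the logarithm, base 2, of genotype enrichment over wild-type enrichment from inverse-variance-weighted replicate averages of Illumina-sequenced inputs and outputs, keeping genotypes with ≥10 input reads and ≥1 read per output.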
row,Variant,polymerase ribozyme fitness (log ratio)
1,GACCAAUCUGCCCUCAGAGCUCGAGAACAUCUUCGGAUGCAGAGGAGGUAGGCAUCGGUGGCGCGAUAGCGCCAACGUCCUCAACCUCCAACGCAUCCCACCACAUGAUGAUGCCUGAACAGCCUUGAUUUUUUG [C49U U54A U92C G120C G128A],-4.05
2,GACCAAUCUGCCCUCAGAGCUCGAGAACAUCUUCGGAUGCAGAGGAGGUAGGCUUCGGUGGCGCGAUAGCGCCAACGUCCUCAACCUCCAAUGCACCCCACCACAUGAUGAUGCCUGAAGAGCAUUGGUUUUUUG [C49U U96C C124A],1.03
3,GACCAAUCUGCCCUCAGAGCUCGAGAACAUCUUCGGAUGCAGAGGAGGUAGGCUUCGGUAGCGCGAUAGCGCCAACGUCCUUAACCUCCAAUGCAUCCCACCACAAGAUGAUGCCUGAACAGCCUUGGUUUUUUA [C49U G60A C82U U106A G120C G135A],0.366
4,GACCAAUCUGCCCUCAGAGCUCGAGAACAUCUUCGGAUGCAGAGGAGGUAGGCUUCGCUGGCGCGAUAGCGCCAACGUCCUCAACCUCCAAUGCAUCCCACCACAUGAUGAUGCCUGAAGAGCCUUGGUUUUUUG [C49U G58C],-0.728
5,GACCAAUCUGCCCUCAGAGCUCGAGAACAUCUUCGGAUGCAGAGGAGGUAGGCUUCGGUGUCGCGAUAGCGCCAACGUCCUCAACCUCCAAUGCAUCCCACCACAUGAUGAUGCCUGAAGAGCCUUGGUUUUUUG [C49U G61U],-0.402
6,GACCAAUCUGCCCUCAGAGCUCGAGAACAUCUUCGGAUGCAGAGGAGGUAGGCUUCGGUGUCGCGAUAGGGCCAACGUCCGCAACCUCCAAUGCAUCCCACCACAUGAUGAUGCGUGAAGAGUCUUGGUAUUUUG [C49U G61U C70G U81G C115G C123U U130A],-5.96
7,GACCAAUCUGCCCUCAGAGCUCGAGAACAUCUUCGGAUGCAGAGGAGGUAGGCUUCGGUGGCGCGAUAGCACCAACGUCCUCAACCUCCAAUGCAUCCCACCACAUGAUGAUGCCUGAAGAGCCUUGGUUUUUUG [C49U G71A],-1.46
8,GACCAAUCUGCCCUCAGAGCUCGAGAACAUCUUCGGAUGCAGAGGAGGUAGGCUUCGGUGGCGCGAUAGCUCCAACGUCCUCAACCUCCAAUGCAUCCCACCACAUGAUGAUGCCUGAAGAGCCUUGGUUUUUUG [C49U G71U],-0.77
9,GACCAAUCUGCCCUCAGAGCUCGAGAACAUCUUCGGAUGCAGAGGAGGUAGGCUUCGGUGGCGCGAUAGCCCCAACGUCCUCAACCUCCAAUGCAUCCCACCACAUGAUGAUGCCUGAAGAGCCUUGGUUUUUUG [C49U G71C],-2.01
10,GACCAAUCUGCCCUCAGAGCUCGAGAACAUCUUCGGAUGCAGAGGAGGUAGGCUUCGGUGCCGCGAUAGCACCAACGUCCUCAACCUCCAAUGCGUCCCACCACAUGAUGAUUCCUGAAGAGCCUUGGUUUUUUG [C49U G61C G71A A95G G113U],-7.48
11,GACCAAUCUGCCCUCAGAGCUCGAGAACAUCUUCGGAUGCAGAGGAGGUAGGCUUCGGUGGCGCGAUAUCGCCAACGCCCACAACCUCCAAUGCAUCCCACCACAUGAUGAUGGCUUAAGAGCCUUUGUUUUUUG [C49U G69U U78C U81A C114G G117U G127U],-5.33
12,GACCAAUCUGCCCUCAGAGCUCGAGAACAUCUUCGGAUGCAGAGGAGGCCGGCUUAGGUGGCGCGAUAGCGCCAACCUCCUCAACCUCCAAUGCAUCCCACCACAUGAUGAUGCAUGAAGAGCCUUGGUUUUUUG [A50C C56A G77C C115A],-1.07
13,GACCAAUCUGCCCUCAGAGCUCGAGAACAUCUUCGGAUGCAGAGGAGGUAGGCUUCGGUGGCGCGAUAUCGCCAACGUCAUCAACCUCCAAUGCAUCCCACCACAUGAUGAUGCCUGAAGAGCCUUGGUUUUUUG [C49U G69U C80A],-3.24
14,GACCAAUCUGCCCUCAGAGCUCGAGAACAUCUUCGGAUGCAGAGGAGGUAGGCUUCGGUGGCCCGAUAGCGCCAACGUCCUCAACCUCCAAUGCAUCCCACCACAUGAUGAUGCCUGAAGAGCUUUGGUUUUUUG [C49U G63C C124U],0.36
15,GACCAAUCUGCCCUCAGAGCUCGAGAACAUCUUCGGAUGCAGAGGAGGCCGGCUUCGGUGGCGCGAUAGCGCCAACGUCCUCAACCUCCAAUGCAUCCCCCCAUAUGAUGAUGCCUGAACAGCCUUUGUUUUUUG [A50C A100C C104U G120C G127U],0.167
16,GACCAAUCUGCCCUCAGAGCUCGAGAACAUCUUCGGAUGCAGAGGAGGUAGGCUUCGGUGGCGCGAUAGCCCCAACGUCCUCAACCUCCAAUGGAUCCCACCACAUGAUGAUGCCUGAAGAGCCUUGGUUUUUUG [C49U G71C C94G],-2.87
17,GACCAAUCUGCCCUCAGAGCUCGAGAACAUCUUCGGAUGCAGAGGAGGUAGGCUUCGGUGGCGCCAUAGCGCCAACGUCCUCAACCUCCAAUGCAUCCCACCAGAUGAUGAUGCCUGAAGAGACUUGGUUUUUUG [C49U G65C C104G C123A],-7.83
18,GACCAAUCUGCCCUCAGAGCUCGAGAACAUCUUCGGAUGCAGAGGAGGCCGGCUUUGGUGGCGCGAUAGCGCCAACGUCCUCAACCUCCAAUGCAUCCCACCACAUGAUGAUGCCUGAAGAGCCUUGGUUUUUUG [A50C C56U],-0.0268
19,GACCAAUCUGCCCUCAGAGCUCGAGAACAUCUUCGGAUGCAGAGGAGGUAGGCUUCGGUGGCGCGAUAGCGCCAACGUCCUCAACCUCCAAUGCAUCCCACCACAUGAUGAUGCCUGAACAGGCUUGGUUUUUUG [C49U G120C C123G],-0.212
20,GACCAAUCUGCCCUCAGAGCUCGAGAACAUCUUCGGAUGCAGAGGAGGCCGGCUUCGGUGGAGCGAUAGCGCCAACGUCCUCAACCUCCAAUGCAUCCCACCACAAGAUGGUGUCUGAAGAGACUUGGUUUUUUG [A50C C62A U106A A111G C114U C123A],-5.42
21,GACCAAUCUGCCCUCAGAGCUCGAGAACAUCUUCGGAUGCAGAGGAGGUAGGCUUCGGUGGCGCGAUAGCGCCAACGCCCUCAACCUCCAAUGCAUCCCACCACAUGAUGAUGCCUGAAGAGCCUUGGUUUUUUG [C49U U78C],-1

row,Variant,polymerase ribozyme fitness (log ratio)
1,GACCAAUCUGCCCUCAGAGCUCGAGAACAUCUUCGGAUGCAGAGGAGGUAGGCUUCGGUAGCGCGAUAGCGCCAACGUCCUCGACCUCCAAUGCAUCCCACCACAUGAUGAUGCCUGAAGAGCCUUGGUUUUAUG [C49U G60A A83G U133A],-0.755
2,GACCAAUCUGCCCUCAGAGCUCGAGAACAUCUUCGGAUGCAGAGGAGGUAGGCUUCGGUGUCGCGAUAGCGCCAACGUCCUCAACAUCCAAUGCAUCCCACCACAUGAUGAUGCCUGAAGAGCCUUGGUUUUUUG [C49U G61U C86A],-1.79
3,GACCAAUCUGCCCUCAGAGCUCGAGAACAUCUUCGGAUGCAGAGGAGGUAGGCUGCGGUGGCGCGAUAGCGCCAACGUCCUCAACCUCCAAUGCAUCCCACCACAUGAUGAUGCCUGAAGAGCCUUGGUUUUUUG [C49U U55G],-0.735
4,GACCAAUCUGCCCUCAGAGCUCGAGAACAUCUUCGGAUGCAGAGGAGGUAGGCUUCGGUGGCGCGAUAGCGCCAACGUCCUCAACCUCCAAUGCAUCCCACCACAUGAUGAUGCCUGAAUAGCCUUGGUUUUUUG [C49U G120U],-0.184
5,GACCAAUCUGCCCUCAGAGCUCGAGAACAUCUUCGGAUGCAGAGGAGGUAGGCUUCGGUGGCGCGAUAGCGCCAACGUCCUCAACCUCCAAUGCAUCCCACCACAUGAUGAUGCCUGAACAGCCUUGGUUUUUUG [C49U G120C],0.88
6,GACCAAUCUGCCCUCAGAGCUCGAGAACAUCUUCGGAUGCAGAGGAGGUAGGCUUCGGUGGCGCGAUAGCGCCAACGUCCUCAACCUCCAAUGCAUCCCACCACAUGAUGAUGCCUGAAGAGCCUUGUUUUUUUG [C49U G128U],-2.9
7,GACCAAUCUGCCCUCAGAGCUCGAGAACAUCUUCGGAUGCAGAGGAGGCCGGCUUCGGUGGCGCGAUAGCGCCAGCGUCCUCAACCUCCAAUGCCUCCCACCACAUGAUGAUGCCUGAAGAGCCUUGGUUUUUUG [A50C A75G A95C],-0.114
8,GACCAAUCUGCCCUCAGAGCUCGAGAACAUCUUCGGAUGCAGAGGAGGUAGGCUUCGGUGGCGCGAUAGCCCCAACGUCCUCAACCUCCAAUGCAUCCCACCACAUGAUGAUGCCUUAAAAGCAUUGGUUUUUUG [C49U G71C G117U G120A C124A],-2.34
9,GACCAAUCUGCCCUCAGAGCUCGAGAACAUCUUCGGAUGCAGAGGAGGCCGGCUUCGGUGGCGCGAUAGCGCCAACGUCCUCAACCUCCAGUGCAUCCCACCACAUGAUGAUGCCUGAAGAGCAUUGGUUUUAUG [A50C A91G C124A U133A],1.25
10,GACCAAUCUGCCCUCAGAGCUCGAGAACAUCUUCGGAUGCAGAGGAGGUAGGCUUCGGUCGCGCGAUAGCGCCAACGUCCUCAACCUCCAAUGCAUCCCACCACAUGAUGAUGCCUGAAGAGCCUUGGUUUUUUG [C49U G60C],-0.958
11,GACCAAUCUGCCCUCAGAGCUCGAGAACAUCUUCGGAUGCAGAGGAGGUAGGCUUCGGUUGCGCGAUAGCGCCAACGUCCUCAACCUCCAAUGCAUCCCACCACAUGAUGAUGCCUGAAGAGCCUUGGUUUUUUG [C49U G60U],-0.405
12,GACCAAUCUGCCCUCAGAGCUCGAGAACAUCUUCGGAUGCAGAGGAGGUAGGCUUCGGGGGCGCGAUAGCGUCAACGUCCUCAACCUCCAAUGCAUCCCACCACAUGAUGAUGCCUGAAGAGCCUUGGUUUUUUG [C49U U59G C72U],-1.12
13,GACCAAUCUGCCCUCAGAGCUCGAGAACAUCUUCGGAUGCAGAGGAGGUAGGCUUCGGUGGCGCGAUAGCGCCAACGUCCUCAACCUCCAAUGCAUCCCACCACAAGAUGAUGCCGGAAGAGCCUUGAUUUUUUG [C49U U106A U116G G128A],-5.82
14,GACCAAUCUGCCCUCAGAGCUCGAGAACAUCUUCGGAUGCAGAGGAGGCCGGUUUCGGUGGCGCGAUAGCGUCAACGUCCUCAACCUCCAAUGCAUCCCACCACAUGAUGAUGCCUGAAGAGCCUUAGUUUUAUG [A50C C53U C72U G127A U133A],-3.63
15,GACCAAUCUGCCCUCAGAGCUCGAGAACAUCUUCGGAUGCAGAGGAGGUAGGCUUCUGUGACGCGAUAGCGCCAACGUCCUCAACCUCCAAUGCAUCCCACCACAUGAUGAUGCCUGAAAAGCCUUGGUUUUUUG [C49U G57U G61A G120A],-0.511
16,GACCAAUCUGCCCUCAGAGCUCGAGAACAUCUUCGGAUGCAGAGGAGGUAGGCUUCGGUGGCACGACAGCGCCAACGUCCUCAAUCUCCAAUUCAUCCCACCACAUGAUCAUGCCUGAAGAGCAUUGGUUUUUUG [C49U G63A U67C C85U G93U G110C C124A],-8.14
17,GACCAAUCUGCCCUCAGAGCUCGAGAACAUCUUCGGAUGCAGAGGAGGUAGGCUUCGGUGGCACGAUAGCGCCAACGUCCUCAACCUCCAAUGCAUCCCACCACAUGAUGAUGCCUGAAGAGCCUUGGUUUUUUG [C49U G63A],-1.67
18,GACCAAUCUGCCCUCAGAGCUCGAGAACAUCUUCGGAUGCAGAGGAGGCCGGCUUCGGUGGCGCGAUAGCGCCAACGUCCUCACCCUCCAAUGCAUCCCACCACAUGAUGAUGCCUGAAGAGCCUUGGUUUUUUG [A50C A84C],-1.1
19,GACCAAUCUGCCCUCAGAGCUCGAGAACAUCUUCGGAUGCAGAGGAGGUAGGCUUCGGUGGCGCGAUAGCGCCAACGUCCUCAACCUCCAAUGCAUCCCACCACAUGAUAAUGCCUGAAGAGCCUUGGUUUUUUG [C49U G110A],-1.45
20,GACCAAUCUGCCCUCAGAGCUCGAGAACAUCUUCGGAUGCAGAGGAGGUAGGCUUCGGUGGCGCGAUAGCGCCAACGUCCUCAACCUCCAAUGCAUCCCACCACAAGAUGAUGUCUGAAGAGCCUUGGUUUUUUG [C49U U106A C114U],-4.43
21,GACCAAUCUGCCCUCAGAGCUCGAGAACAUCUUCGGAUGCAGAGGAGGUAGGCUUCGGUGUCGCGAUAGCGCCAACGUCCACAACCUCCAAUGCAUCCCACCACAUGAUGAUGCGUGAAGAGCCUUGGUUUUUUG [C49U G61U U81A C115G],-2.05
